The Immune Epitope Database (IEDB)
Each block holds one sequence with its values, some of them ahead of it.

Assays:
HLA-B*73:01 [1] = assay: IEDB peptide-MHC binding, purified MHC/competitive/fluorescence; filed as Kd, often an IC50 or EC50 that approximates it; ≥ and ≤ were set here for values at or beyond the usual limits of such assays; conditions: source organism: Escherichia coli O157:H7 str. Sakai
HLA-C*04:01 = assay: as above; conditions: source organism: Burkholderia pseudomallei S13
HLA-B*83:01 = assay: as above; conditions: source organism: Burkholderia pseudomallei S13
HLA-B*45:06 = assay: as above; conditions: source organism: Burkholderia pseudomallei S13
HLA-A*23:01 = assay: as above; conditions: source organism: Burkholderia pseudomallei S13
HLA-B*15:42 = assay: as above; conditions: source organism: Burkholderia pseudomallei S13
HLA-A*24:02 = assay: IEDB peptide-MHC binding, cellular MHC/competitive/fluorescence; ≥ and ≤ were set here for values at or beyond the usual limits of such assays; conditions: source organism: Human herpesvirus 5 strain AD169
HLA-A*26:02 = assay: IEDB peptide-MHC binding, purified MHC/competitive/fluorescence; filed as Kd, often an IC50 or EC50 that approximates it; ≥ and ≤ were set here for values at or beyond the usual limits of such assays; conditions: source organism: Human immunodeficiency virus 1
HLA-A*02:03 = assay: as above
HLA-B*35:01 = assay: as above; conditions: source organism: Human immunodeficiency virus 1
HLA-B*57:01 [2] = assay: as above; conditions: source organism: Human immunodeficiency virus 1
HLA-A*11:01 = assay: as above
HLA-B*18:01 [3] = assay: as above; conditions: source organism: Human immunodeficiency virus 1
HLA-A*01:01 [4] = assay: as above; conditions: source organism: Human immunodeficiency virus 1
HLA-A*02:06 = assay: as above; conditions: source organism: Human immunodeficiency virus 1
HLA-A*30:01 = assay: as above; conditions: source organism: Human immunodeficiency virus 1
HLA-B*15:01 [5] = assay: as above; conditions: source organism: Human immunodeficiency virus 1
HLA-A*68:01 = assay: IEDB peptide-MHC binding, purified MHC/competitive/radioactivity; ≥ and ≤ were set here for values at or beyond the usual limits of such assays; conditions: source organism: Hepacivirus hominis
HLA-A*31:01 = assay: IEDB peptide-MHC binding, purified MHC/competitive/fluorescence; filed as Kd, often an IC50 or EC50 that approximates it; ≥ and ≤ were set here for values at or beyond the usual limits of such assays; conditions: source organism: Brucella abortus S19
HLA-A*26:03 = assay: as above; conditions: source organism: Brucella abortus S19
HLA-B*27:05 = assay: IEDB peptide-MHC binding, purified MHC/direct/fluorescence; filed as Kd, often an IC50 or EC50 that approximates it; ≥ and ≤ were set here for values at or beyond the usual limits of such assays; conditions: source organism: Brucella abortus 2308
HLA-A*68:02 = assay: as above; conditions: source organism: Brucella abortus 2308
HLA-B*57:01 [6] = assay: as above; conditions: source organism: Brucella abortus 2308
HLA-A*69:01 = assay: as above; conditions: source organism: Brucella abortus 2308
HLA-B*48:01 = assay: as above; conditions: source organism: Brucella abortus 2308
HLA-A*03:01 = assay: as above; conditions: source organism: Brucella abortus 2308
HLA-B*18:01 [7] = assay: as above; conditions: source organism: Brucella abortus 2308
HLA-B*73:01 [8] = assay: as above; conditions: source organism: Brucella suis 1330
HLA-B*07:02 = assay: as above; conditions: source organism: Brucella abortus 2308
HLA-A*01:01 [9] = assay: as above; conditions: source organism: Brucella abortus 2308
HLA-B*15:17 = assay: as above; conditions: source organism: Brucella abortus 2308
HLA-A*02:01 = assay: as above; conditions: source organism: Brucella abortus 2308
HLA-B*58:01 = assay: as above; conditions: source organism: Brucella abortus 2308
HLA-B*08:01 = assay: as above; conditions: source organism: Brucella suis 1330
HLA-B*39:01 = assay: as above; conditions: source organism: Brucella suis 1330
HLA-B*15:01 [10] = assay: as above; conditions: source organism: Brucella abortus 2308
HLA-A*01:01 [11] = assay: IEDB peptide-MHC binding, purified MHC/competitive/radioactivity; ≥ and ≤ were set here for values at or beyond the usual limits of such assays; conditions: source organism: Homo sapiens
[12] = source organism: Human immunodeficiency virus 1
[13] = source organism: Brucella abortus S19

Kd (HLA-B*73:01 [1]): 67.3 nM
Sequence: NEWYVQPQA

Sequence: GFYLSGHLF
Kd (HLA-C*04:01): ≥ 5000 nM
Kd (HLA-B*83:01): ≥ 5000 nM
Kd (HLA-B*45:06): ≥ 5000 nM
Kd (HLA-A*23:01): ≤ 0.1 nM
Kd (HLA-B*15:42): ≥ 5000 nM

Sequence: VYYTSAFVF
IC50 (HLA-A*24:02): 35000 nM

Sequence: RSLFNTVAVLY
Kd (HLA-A*26:02): 3070 nM
Kd (HLA-A*02:03; [12]): 644 nM
Kd (HLA-B*35:01): 387 nM
Kd (HLA-B*57:01 [2]): 676 nM
Kd (HLA-A*11:01; [12]): 1350 nM
Kd (HLA-B*18:01 [3]): 360 nM
Kd (HLA-A*01:01 [4]): ≥ 20000 nM
Kd (HLA-A*02:06): 952 nM
Kd (HLA-A*30:01): 2960 nM
Kd (HLA-B*15:01 [5]): 907 nM

Sequence: QLFTFSPRR
IC50 (HLA-A*68:01): 2.6 nM

Sequence: RMIESRMSK
Kd (HLA-A*02:03; [13]): ≥ 20000 nM
Kd (HLA-A*31:01): 60.7 nM
Kd (HLA-A*26:03): ≥ 20000 nM
Kd (HLA-A*11:01; [13]): 5.5 nM
Kd (HLA-B*27:05): 52.5 nM
Kd (HLA-A*68:02): ≥ 20000 nM
Kd (HLA-B*57:01 [6]): ≥ 20000 nM
Kd (HLA-A*69:01): ≥ 20000 nM
Kd (HLA-B*48:01): ≥ 20000 nM
Kd (HLA-A*03:01): 131 nM
Kd (HLA-B*18:01 [7]): ≥ 20000 nM
Kd (HLA-B*73:01 [8]): ≥ 20000 nM
Kd (HLA-B*07:02): ≥ 20000 nM
Kd (HLA-A*01:01 [9]): ≥ 20000 nM
Kd (HLA-B*15:17): ≥ 20000 nM
Kd (HLA-A*02:01): ≥ 20000 nM
Kd (HLA-B*58:01): ≥ 20000 nM
Kd (HLA-B*08:01): ≥ 20000 nM
Kd (HLA-B*39:01): ≥ 20000 nM
Kd (HLA-B*15:01 [10]): 341 nM

IC50 (HLA-A*01:01 [11]): 7 nM
Sequence: IVDSLTEMY
